{
  "source": "paper PMC8997907",
  "about": "“A Novel Role for Plasminogen Activator Inhibitor Type-2 as a Hypochlorite-Resistant Serine Protease Inhibitor and Holdase Chaperone” (Cells, 2022)",
  "proteins": {"B1": {"name": "Hypochlorite-treated glycosylated PAI-2 (PAI-2^G pre-treated with NaOCl) (natural protein, human, UniProt P05120 1-415, looked up)", "chain": "MEDLCVANTLFALNLFKHLAKASPTQNLFLSPWSISSTMAMVYMGSRGSTEDQMAKVLQFNEVGANAVTPMTPENFTSCGFMQQIQKGSYPDAILQAQAADKIHSSFRSLSSAINASTGNYLLESVNKLFGEKSASFREEYIRLCQKYYSSEPQAVDFLECAEEARKKINSWVKTQTKGKIPNLLPEGSVDGDTRMVLVNAVYFKGKWKTPFEKKLNGLYPFRVNSAQRTPVQMMYLREKLNIGYIEDLKAQILELPYAGDVSMFLLLPDEIADVSTGLELLESEITYDKLNKWTSKDKMAEDEVEVYIPQFKLEEHYELRSILRSMGMEDAFNKGRANFSGMSERNDLFLSEVFHQAMVDVNEEGTEAAAGTGGVMTGRTGHGGPQFVADHPFLFLIMHKITNCILFFGRFSSP", "modifications": "glycosylated; hypochlorite-modified: dityrosine cross-linkages, reactive thiols (cysteines) reduced by 62 ± 27% at 200 µM NaOCl; positions not given", "notes": "m1 after treatment with NaOCl; the dose differs between experiments (0-200 µM); also called hypochlorite-treated PAI-2^G; PAI-2^G OX200; source: bought: Biotech Australia (produced in CHO cells); incubated 2 h at 24 °C with up to 200 µM NaOCl, dialysed"}, "B2": {"name": "Hypochlorite-treated non-glycosylated PAI-2 (PAI-2^NG pre-treated with NaOCl) (natural protein, human, UniProt P05120 1-415, looked up)", "chain": "B1 chain", "modifications": "hypochlorite-modified: dityrosine cross-linkages, reactive thiols (cysteines) reduced by 75 ± 18% at 200 µM NaOCl; positions not given", "notes": "m2 after treatment with NaOCl; the dose differs between experiments (0-200 µM); also called hypochlorite-treated PAI-2^NG; PAI-2^NG OX200; source: bought: Biotech Australia (produced in E. coli); incubated 2 h at 24 °C with up to 200 µM NaOCl, dialysed"}},
  "target": "the molecule itself",
  "experiment": "native gel or EMSA; samples at the end of ThT assays (Aβ1-42 3 µM with PAI-2 pre-treated with 0-200 µM NaOCl, PBS, 28 °C) centrifuged at 24,000 x g, supernatant on 8% native PAGE, Western blot with anti-Aβ (W0-2) or anti-PAI-2",
  "data": [
    {"protein": "B1", "values": [
      {"measurement": "binding result", "result": "binds"}
    ]},
    {"protein": "B2", "values": [
      {"measurement": "binding result", "result": "binds"}
    ]}
  ]
}
